Measured values published in publication PMC10374065 (PLOS Pathogens, 2023).

B2: purified recombinant T7-tagged vIRF-1 (natural protein)
chain: MDPGQRPNPFGAPGAIPKKPCLSQGSPGTSGSGAPCDEPSRSESPGEGPSGTGGSAAAGDITRQAVVAAITEWSRTRQLRISTGASEGKASIKDWIVCQVNSGKFPGVEWEDEERTRFRIPVTPLADPCFEWRRDGELGVVYIRERGNMPVDASFKGTRGRRRMLAALRRTRGLQEIGKGISQDGHHFLVFRVRKPEEEQCVECGVVAGAVHDFNNMARLLQEGFFSPGQCLPGEIVTPVPSCTTAEGQEAVIDWGRLFIRMYYNGEQVHELLTTSQSGCRISSALRRDPAVHYCAVGSPGQVWLPNVPNLACEIAKRELCDTLDACAKGILLTSSCNGIFCVCYHNGPVHFIGNTVPPDSGPLLLPQGKPTRIFNPNTFLVGLANSPLPAPSHVTCPLVKLWLGKPVAVGKLEPHAPSPRDFAARCSNFSDACVVLEIMPKPLWDAMQ
notes: source: purified recombinant protein; not shown: T7, C-terminal, kept

Experiments:
Test in all cases: pull-down
Conditions in all cases: both partners purified
[1] = target: B2
GST-GABARAPL1 = target: T1, GST-GABARAPL1 (human, UniProt Q9H0R8 1-117)
T1 construct: also called GABARAP-like 1; GL1

GST-LC3B L22K = GST-LC3B L22K (human, UniProt Q9GZQ8 1-120, L22K)
GST-LC3B E41K = GST-LC3B E41K (human, UniProt Q9GZQ8 1-120, E41K)
GST-LC3B D19E = GST-LC3B D19E (human, UniProt Q9GZQ8 1-120, D19E)
[2] = target: T2, purified recombinant T7-tagged GABARAPL1 (human, UniProt Q9H0R8 1-117)
T2 construct: also called T7-GABARAPL1

T1 sequence (Q9H0R8 whole entry): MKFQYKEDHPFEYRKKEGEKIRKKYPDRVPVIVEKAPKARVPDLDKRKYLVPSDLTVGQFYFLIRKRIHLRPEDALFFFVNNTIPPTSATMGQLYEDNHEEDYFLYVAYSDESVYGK

B1: GST-GABARAP (natural protein, human, UniProt O95166 1-117, looked up)
chain: MKFVYKEEHPFEKRRSEGEKIRKKYPDRVPVIVEKAPKARIGDLDKKKYLVPSDLTVGQFYFLIRKRIHLRAEDALFFFVNNVIPPTSATMGQLYQEHHEEDFFLYIAYSDESVYGL
notes: also called γ-amino-butyric acid receptor-associated protein
[1]
  binding result: binds

## B2
GST-GABARAPL1
  binding result: binds
GST-LC3B L22K
  binding result: binds
GST-LC3B E41K
  binding result: binds
GST-LC3B D19E
  binding result: binds

B3: GST-fused full-length (FL) vIRF-1 (natural protein)
chain: MDPGQRPNPFGAPGAIPKKPCLSQGSPGTSGSGAPCDEPSRSESPGEGPSGTGGSAAAGDITRQAVVAAITEWSRTRQLRISTGASEGKASIKDWIVCQVNSGKFPGVEWEDEERTRFRIPVTPLADPCFEWRRDGELGVVYIRERGNMPVDASFKGTRGRRRMLAALRRTRGLQEIGKGISQDGHHFLVFRVRKPEEEQCVECGVVAGAVHDFNNMARLLQEGFFSPGQCLPGEIVTPVPSCTTAEGQEAVIDWGRLFIRMYYNGEQVHELLTTSQSGCRISSALRRDPAVHYCAVGSPGQVWLPNVPNLACEIAKRELCDTLDACAKGILLTSSCNGIFCVCYHNGPVHFIGNTVPPDSGPLLLPQGKPTRIFNPNTFLVGLANSPLPAPSHVTCPLVKLWLGKPVAVGKLEPHAPSPRDFAARCSNFSDACVVLEIMPKPLWDAMQ
[2]
  binding result: binds
